{"source": "paper PMC11555707", "about": "“Histone deacetylase 7 activates 6-phosphogluconate dehydrogenase via an enzyme-independent mechanism that involves the N-terminal protein-protein interaction domain” (Biochemical Journal, 2024)", "molecular_target": "the molecule itself", "test": "cross-linking; lysates of transfected HEK293 cells (50 mM HEPES, 150 mM NaCl, 0.5% Triton X-100) incubated with 2 mM disuccinimidyl suberate (DSS) for 30 min at room temperature, quenched with 50 mM Tris-HCl; immunoblot with anti-Flag; 6PGD alone or with HDAC7, N-HDAC7, C-HDAC7 or SOX7"}
{"protein": "6-phosphogluconate dehydrogenase (6PGD), Flag-tagged (enzyme, mouse, UniProt Q9DCD0 1-483, looked up, mouse 6-phosphogluconate dehydrogenase (6PGD); A shorter ~40 kDa form (6PGD-s), also detected by anti-Flag, arises in the same cells; also called full-length 6PGD; source: HEK293, transfected (pCMV-based construct), in lysate) MAQADIALIGLAVMGQNLILNMNDHGFVVCAFNRTVSKVDDFLANEAKGTKVVGAQSLKDMVSKLKKPRRVILLVKAGQAVDDFIEKLVPLLDTGDIIIDGGNSEYRDTTRRCRDLKAKGILFVGSGVSGGEEGARYGPSLMPGGNKEAWPHIKAIFQAIAAKVGTGEPCCDWVGDEGAGHFVKMVHNGIEYGDMQLICEAYHLMKDVLGMRHEEMAQAFEEWNKTELDSFLIEITANILKYRDTDGKELLPKIRDSAGQKGTGKWTAISALEYGMPVTLIGEAVFARCLSSLKEERVQASQKLKGPKVVQLEGSKKSFLEDIRKALYASKIISYAQGFMLLRQAATEFGWTLNYGGIALMWRGGCIIRSVFLGKIKDAFERNPELQNLLLDDFFKSAVDNCQDSWRRVISTGVQAGIPMPCFTTALSFYDGYRHEMLPANLIQAQRDYFGAHTYELLTKPGEFIHTNWTGHGGSVSSSSYNA", "values": [{"measurement": "stoichiometry N", "result": 2}]}
